# From patent publication US20240026037A1 (Memorial Sloan Kettering, published 2024)
# T1: Human GPA33 on GPA33+ colorectal cancer cell lines (Colo 205, LS 174T, SW 1222) (human, UniProt Q99795 22-319)
# T1 construct: Endogenous GPA33 on human colorectal cancer cell lines; also called surface human GPA33; GPA33+ tumor cell lines
# T1 sequence: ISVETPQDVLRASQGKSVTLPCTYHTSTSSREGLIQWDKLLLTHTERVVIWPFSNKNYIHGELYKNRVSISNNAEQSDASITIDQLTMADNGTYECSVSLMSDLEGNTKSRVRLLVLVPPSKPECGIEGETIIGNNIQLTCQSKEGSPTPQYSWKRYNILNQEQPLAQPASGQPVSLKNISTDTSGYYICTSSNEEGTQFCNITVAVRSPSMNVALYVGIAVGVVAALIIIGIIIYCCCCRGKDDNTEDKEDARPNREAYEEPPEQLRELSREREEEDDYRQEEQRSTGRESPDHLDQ
# T2: Human GPA33 (recombinant protein, Novoprotein) (human, UniProt Q99795 22-235)
# T2 construct: Bought recombinant protein immobilized on a CM5 chip; also called GPA33 antigen; tumor antigen GPA33
# T2 sequence: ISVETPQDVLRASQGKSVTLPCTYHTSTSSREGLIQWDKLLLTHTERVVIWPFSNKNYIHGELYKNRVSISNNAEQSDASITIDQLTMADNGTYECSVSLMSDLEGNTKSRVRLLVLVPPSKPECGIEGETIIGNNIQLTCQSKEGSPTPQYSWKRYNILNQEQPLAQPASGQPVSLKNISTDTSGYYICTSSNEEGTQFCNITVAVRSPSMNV
# B1: Humanized A33 antibody with variable heavy chain VH1 and variable light chain VK4 (antibody, IgG1, V domains shown)
# VH: EVQLVESGGGLVKPGGSLRLSCAASGFAFSTYDMSWVRQAPGKGLEWVSTISSGGSYTYYADSVKGRFTISRDNAKNSLYLQMNSLRAEDTAVYYCAPTTVVPFAYWGQGTLVTVSA
# VL: DIQMTQSPSSLSASVGDRVTITCKASQNVRTVVAWYQQKPGKAPKTLIYLASNRHTGVPSRFSGSGSGTEFTLTISNLQPEDFATYYCLQHWSYPLTFGSGTKLEVK
# notes: Mouse A33 was humanized as IgG1 and tested in IgG format; also called VH1/VK4; huA33 IgG1
# B2: TC159 (bispecific antibody)
# chain: EVQLVESGGGLVKPGGSLRLSCAASGFAFSTYDMSWVRQAPGKRLEWVATISSGGSYTYYLDSVKGRFTISRDNAKNSLYLQMNSLRAEDTAVYYCAPTTVVPFAYWGQGTLVTVSSGGGGSGGGGSGGGGSGGGGSGGGGSGGGGSDIQMTQSQSSLSTSVGDRVTITCKASQNVRTVVAWYQQKPGKSPKTLIYLASNRHTGVPSRFSGSGSGTEFTLTISNVQPEDFADYFCLQHWSYPLTFGSGTKLEIKRGGGGSGGGGSGGGGSGGGGSHVQLVESGGGLVQPGGSLRLSCAASGFSLTDYGVHWVRQAPGKGLEWLGVIWSGGGTAYNTALISRFTISRDNSKNTLYLQMNSLRAEDTAVYYCARRGSYPYNYFDAWGCGTLVTVSSGGGGSGGGGSGGGGSGGGGSGGGGSGGGGSQAVVTQEPSLTVSPGGTVTLTCGSSTGAVTASNYANWVQQKPGQCPRGLIGGHNNRPPGVPARFSGSLLGGKAALTLLGAQPEDEAEYYCALWYSDHWVIGGGTKLTVLGTPLGDTTHTSGKPLDGEYFTLQIRGRERFEMFRELNEALELKDAQAGKEPGGSGGAPHHHHHH
# notes: Previously described GPA33xDOTA SADA clone whose GPA33 scFv comes from another clone; Carries the p53 SADA (tetramerization) domain
# B3: BC016 (G3A H3L3) (bispecific antibody, human IgG1, kappa, N297A)
# heavy: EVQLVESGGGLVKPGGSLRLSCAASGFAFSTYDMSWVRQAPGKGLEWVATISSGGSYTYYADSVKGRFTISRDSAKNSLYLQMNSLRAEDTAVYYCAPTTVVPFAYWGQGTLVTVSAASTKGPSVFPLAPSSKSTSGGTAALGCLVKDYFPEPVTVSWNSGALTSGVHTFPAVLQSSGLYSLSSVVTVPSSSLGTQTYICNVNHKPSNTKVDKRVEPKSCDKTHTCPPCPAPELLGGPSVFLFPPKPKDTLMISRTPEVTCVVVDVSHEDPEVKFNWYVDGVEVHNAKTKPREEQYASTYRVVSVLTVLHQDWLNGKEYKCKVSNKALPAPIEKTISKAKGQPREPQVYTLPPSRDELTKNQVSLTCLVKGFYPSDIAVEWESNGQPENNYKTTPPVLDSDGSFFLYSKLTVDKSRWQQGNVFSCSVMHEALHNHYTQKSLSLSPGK
# light: DIQMTQSPSSLSTSVGDRVTITCKASQNVRTVVAWYQQKPGKAPKTLIYLASNRHSGVPSRFSGSGSGTEFTLTISNLQPEDFATYYCLQHWSYPLTFGSGTKLEVKRTVAAPSVFIFPPSDEQLKSGTASVVCLLNNFYPREAKVQWKVDNALQSGNSQESVTEQDSKDSTYSLSSTLTLSKADYEKHKVYACEVTHQGLSSPVTKSFNRGECTSGGGGSGGGGSGGGGSHVQLVESGGGLVQPGGSLRLSCAASGFSLTDYGVHWVRQAPGKGLEWLGVIWSGGGTAYNTALISRFTISRDNSKNTLYLQMNSLRAEDTAVYYCARRGSYPYNYFDAWGCGTLVTVSSGGGGSGGGGSGGGGSGGGGSGGGGSGGGGSQAVVTQEPSLTVSPGGTVTLTCGSSTGAVTASNYANWVQQKPGQCPRGLIGGHNNRPPGVPARFSGSLLGGKAALTLLGAQPEDEAEYYCALWYSDHWVIGGGTKLTVLG
# notes: GPA33xDOTA IgG-[L]-scFv; The anti-DOTA scFv is fused to the C-terminus of the light chain
# Key:
# [1] = target: T1, Human GPA33 on GPA33+ colorectal cancer …; assay: cell binding to SW1222 Luc cells; IgG format
# [2] = target: T1, Human GPA33 on GPA33+ colorectal cancer …; assay: cell binding to LS174T Luc cells; IgG format
# [3] = target: T2, Human GPA33 (recombinant protein, …); assay: SPR (Biacore), human GPA33 immobilized on CM5 chip, IgG format
# Method: (§1) SPR analysis. Human GPA33 (Novoprotein, Summit, NJ) was immobilized on CM5 chips. Five concentrations of 2-fold serially diluted huA33 IgG1 or huA33-BsAbs (starting at 20 nM) were flowed over the chip using a Biacore™ T100 system (GE Healthcare, Chicago, IL). Binding kinetics of huA33 were measured at 25° C. and binding kinetics of huA33-BsAbs were measured at both 25° C. and 37° C. The sensorgrams were fitted with two state binding model for both to derive kinetic parameters.
# [4] = target: T1, Human GPA33 on GPA33+ colorectal cancer …; assay: FACS binding to Colo205 cells (GPA33+)
# [5] = target: T2, Human GPA33 (recombinant protein, …); assay: SPR
# Outline: (§2)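 Affinity (KD) was measured by surface plasmon resonance on a Biacore system, with recombinant human GPA33 (Novoprotein) immobilised on a CM5 sensor chip. Antibodies were injected at five concentrations, 2-fold serial dilutions starting at 20 nM. The sensorgrams were fitted kinetically to give rate constants and KD. Each KD is given as a ratio to the KD of a reference molecule.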
# [6] = target: T1, Human GPA33 on GPA33+ colorectal cancer …; assay: FACS binding to LS174T cells (GPA33+)
# [7] = target: T2, Human GPA33 (recombinant protein, …); assay: SPR (Biacore), human GPA33 immobilized on CM5 chip, two-state fit, ka1
# Outline: (§3)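 GPA33 immobilized on CM5 chip; five 2-fold dilutions of huA33 IgG1 or huA33 bispecifics from 20 nM injected. Kinetics measured at 25 °C for huA33, at both 25 °C and 37 °C for bispecifics; sensorgrams fitted to a two-state binding model.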
# [8] = target: T2, Human GPA33 (recombinant protein, …); assay: SPR (Biacore), human GPA33 immobilized on CM5 chip, two-state fit, kd1
# Outline: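 Kinetic parameters, including the off-rate (kd1), were obtained by fitting surface plasmon resonance sensorgrams to a two-state binding model. On a Biacore T100 with recombinant human GPA33 immobilised on a CM5 chip, antibodies were passed over at five 2-fold serial dilutions from 20 nM. Runs used 25° C for the parent IgG1, and 25° C and 37° C for the bispecific formats.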
# [9] = target: T2, Human GPA33 (recombinant protein, …); assay: SPR (Biacore), human GPA33 immobilised on the chip; KD relative to that of TC170
# Outline: as §2
# [10] = target: T1, Human GPA33 on GPA33+ colorectal cancer …; assay: FACS binding to Colo205 cells (GPA33+); the text prints 2.46 nM for this pair
# [11] = target: T1, Human GPA33 on GPA33+ colorectal cancer …; assay: flow cytometry, Colo 205 cells; Colo 205 cells
# [12] = target: T1, Human GPA33 on GPA33+ colorectal cancer …; assay: FACS binding to SW1222 cells (GPA33+)
# [13] = target: T1, Human GPA33 on GPA33+ colorectal cancer …; assay: FACS titration on Colo205 cells, geometric mean MFI (the text prints 2.46 nM and calls it IC50)
# [14] = target: T1, Human GPA33 on GPA33+ colorectal cancer …; assay: flow cytometry, SW 1222 cells
# [15] = target: T1, Human GPA33 on GPA33+ colorectal cancer …; assay: flow cytometry, LS 174T cells
# [16] = target: T2, Human GPA33 (recombinant protein, …); assay: SPR (Biacore), human GPA33 immobilized on CM5 chip, two-state fit
# Outline: as §3
# [17] = target: T1, Human GPA33 on GPA33+ colorectal cancer …; assay: FACS titration on SW1222 cells, geometric mean MFI [Cont.]
# [18] = target: T2, Human GPA33 (recombinant protein, …); assay: SPR (Biacore) on immobilized GPA33, 25 C per legend paragraph 44; column ka1 of the two-state fit
# Method: as §1
# [19] = target: T2, Human GPA33 (recombinant protein, …); assay: SPR (Biacore) on immobilized GPA33, 25 C per legend paragraph 44; two-state fit
# Method: as §1
# [20] = target: T1, Human GPA33 on GPA33+ colorectal cancer …; assay: FACS titration on LS174T cells, geometric mean MFI [Cont.]
# [21] = target: T2, Human GPA33 (recombinant protein, …); assay: SPR (Biacore), human GPA33 immobilised on the chip; KD relative to that of BC015
# Outline: as §2
# [22] = target: T2, Human GPA33 (recombinant protein, …); assay: SPR (Biacore) on immobilized GPA33, 25 C per legend paragraph 44; column kd1 of the two-state fit
# Method: as §1
# [23] = target: T1, Human GPA33 on GPA33+ colorectal cancer …; assay: FACS titration on Colo205 cells, geometric mean MFI
# [24] = target: T2, Human GPA33 (recombinant protein, …); assay: SPR (Biacore), human GPA33 immobilised on the chip; two-state fit (ka1, kd1, ka2, kd2); temperature not given on the sheet
# Method: as §1
binder,measurement,setting,value
B1,EC50,[1],0.466 µg/mL
same,EC50,[2],0.503 µg/mL
same,Kd,[3],168 pM
B2,"fold change of binding EC50 (relative to TC170, lower is better)",[4],3.34
same,fold higher affinity than TC160,[5],3 fold
same,"fold change of binding EC50 (relative to TC170, lower is better)",[6],3.94
same,kon,[7],4.09e+06 M⁻¹ s⁻¹
same,koff,[8],0.00181 s⁻¹
same,"Fold change of KD (relative to TC170, lower is better)",[9],1.4
same,EC50,[10],2470 pM
same,EC50,[11],2460 pM
same,"fold change of binding EC50 (relative to TC170, lower is better)",[12],0.24
same,EC50,[13],2470 pM
same,IC50,[14],400 pM
same,IC50,[15],1220 pM
same,Kd,[16],21.6 pM
same,ka2,[16],0.00613 s⁻¹
same,kd2,[16],0.000315 s⁻¹
B3,EC50,[17],350 pM
same,kon,[18],5.5e+06 M⁻¹ s⁻¹
same,Kd,[19],7.92 pM
same,EC50,[20],650 pM
same,"Fold change of KD (relative to BC015, lower is better)",[21],0.07
same,koff,[22],0.000511 s⁻¹
same,EC50,[23],740 pM
same,Kd,[24],7.92 pM
